Results taken from publication PMC3534379.

Experiments:
[1] = target: ß-TrCP N-terminally fused to the C-terminal fragment of click beetle green (UniProt Q9Y297); test: click beetle luciferase complementation assay in living 293T cells; conditions: 36 h after transfection, equal amounts of plasmids, D-Luciferin added, read off a plot
[2] = target: human CD4 C-terminally fused to the C-terminal fragment of click beetle green (UniProt P01730); test: as above; conditions: read off a plot
[3] = target: human CD4 C-terminally fused to the C-terminal fragment of click beetle green (UniProt P01730)
[4] = + ß-TrCPΔF cotransfected (grey bars), parent: est. 20
[5] = without ß-TrCPΔF (coloured bars), parent: est. 8
[6] = + ß-TrCPΔF cotransfected (grey bars), parent: est. 14
[7] = without ß-TrCPΔF (coloured bars), parent: est. 13

UniProt Q9Y297, sequence (Q9Y297 whole entry, the tested form may be a part): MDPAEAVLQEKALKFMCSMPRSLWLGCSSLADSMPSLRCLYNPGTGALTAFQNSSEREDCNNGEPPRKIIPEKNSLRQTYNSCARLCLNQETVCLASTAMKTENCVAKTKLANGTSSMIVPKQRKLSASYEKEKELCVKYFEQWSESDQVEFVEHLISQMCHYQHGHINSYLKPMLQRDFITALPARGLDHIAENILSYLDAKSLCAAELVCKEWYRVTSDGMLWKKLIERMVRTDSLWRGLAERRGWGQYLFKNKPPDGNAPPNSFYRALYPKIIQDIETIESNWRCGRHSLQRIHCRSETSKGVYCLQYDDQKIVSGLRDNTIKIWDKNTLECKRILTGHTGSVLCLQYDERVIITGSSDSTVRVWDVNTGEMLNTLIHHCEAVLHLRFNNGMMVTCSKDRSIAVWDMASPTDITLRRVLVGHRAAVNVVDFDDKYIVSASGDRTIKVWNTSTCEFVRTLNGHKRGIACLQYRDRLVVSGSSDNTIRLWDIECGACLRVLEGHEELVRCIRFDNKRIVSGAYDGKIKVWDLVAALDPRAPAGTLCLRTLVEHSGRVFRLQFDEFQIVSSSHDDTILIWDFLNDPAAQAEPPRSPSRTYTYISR

Row | Substance | response (RLU/s x 1.000) ([1]; parent: est. 6.2) | response (RLU/s x 1.000) [2, 4] | response (RLU/s x 1.000) [2, 5] | reduction in CD4 cell surface expression (293T cells, flow cytometry) [3] [fold] | response (RLU/s x 1.000) ([1]; parent: est. 4.7) | response (RLU/s x 1.000) [2, 6] | response (RLU/s x 1.000) [2, 7]
1 | HIV-1 group M NL4-3 Vpu C-terminally fused to the N-terminal fragment of click beetle green G53D | 2.2 | 22 | 30 |  |  |  | 
2 | HIV-1 group M NL4-3 Vpu C-terminally fused to the N-terminal fragment of click beetle green S52A; S56A | 2.2 | 24 | 29 |  |  |  | 
3 | HIV-1 group N DJO0131 Vpu C-terminally fused to the N-terminal fragment of click beetle green (natural protein) |  |  |  | 2.8 |  |  | 
4 | HIV-1 group N YBF30 Vpu C-terminally fused to the N-terminal fragment of click beetle green (from UniProt O91085) G51D |  |  |  |  | 1.3 | 12 | 18
5 | HIV-1 group N YBF30 Vpu C-terminally fused to the N-terminal fragment of click beetle green (from UniProt O91085) S52A; S56A |  |  |  |  | 0.9 | 19 | 17
